According to patent US20250171562A1:

B1: CIgG4E1A1(G4S)1 (Fc fusion)
chain 1: GPPCPPCPAPEFLGGPSVFLFPPKPKDTLMISRTPEVTCVVVDVSQEDPEVQFNWYVDGVEVHNAKTKPREEQFNSTYRVVSVLTVLHQDWLNGKEYKCKVSNKGLPSSIEKTISKAKGQPREPQVYTLPPCQEEMTKNQVSLWCLVKGFYPSDIAVEWESNGQPENNYKTTPPVLDSDGSFFLYSRLTVDKSRWQEGNVFSCSVMHEALHNHYTQKSLSLSLGKGGGGSDVQLQESGGGLVQAGGSLRLSCLASGRTFTTTSGYNMGWFRQAPGKEREFVAGIKWVSGSNRAYAESVKGRFTISRDNAKNTVYLQMNSLKPEDTAVYYCAAATGQSYVPIREYEYVYWGQGTQVTVS
chain 2: GPPCPPCPAPEFLGGPSVFLFPPKPKDTLMISRTPEVTCVVVDVSQEDPEVQFNWYVDGVEVHNAKTKPREEQFNSTYRVVSVLTVLHQDWLNGKEYKCKVSNKGLPSSIEKTISKAKGQPREPQVCTLPPSQEEMTKNQVSLSCAVKGFYPSDIAVEWESNGQPENNYKTTPPVLDSDGSFFLVSRLTVDKSRWQEGNVFSCSVMHEALHNHYTQKSLSLSLGKGGGGSEVQLLESGGGLVQPGGSLRLSCAASGFTFGNYDMAWVRQAPGKRPEWVSSIDTGGDITHYADSVKGRFTISRDNAKNTLYLQMNSLRPEDTAVYWCATDEEYALGPNEFDYYGQGTLVTVSS
B2: NIgG4E2A1(G4S)3 (Fc fusion)
chain 1: DVQLQESGGGLVQAGGSLRLSCAASGRTISRYAVGWFRRPPAKEREFIGINWSGGSTTYADSAEGRFIISRDNAKNTVYLQMNSLKPEDTAVYYCAVPSVLVQGGISNPSQYDYWGQGTQVTVSGGGGSGGGGSGGGGSGPPCPPCPAPEFLGGPSVFLFPPKPKDTLMISRTPEVTCVVVDVSQEDPEVQFNWYVDGVEVHNAKTKPREEQFNSTYRVVSVLTVLHQDWLNGKEYKCKVSNKGLPSSIEKTISKAKGQPREPQVYTLPPCQEEMTKNQVSLWCLVKGFYPSDIAVEWESNGQPENNYKTTPPVLDSDGSFFLYSRLTVDKSRWQEGNVFSCSVMHEALHNHYTQKSLSLSLGK
chain 2: EVQLLESGGGLVQPGGSLRLSCAASGFTFGNYDMAWVRQAPGKRPEWVSSIDTGGDITHYADSVKGRFTISRDNAKNTLYLQMNSLRPEDTAVYWCATDEEYALGPNEFDYYGQGTLVTVSSGGGGSGGGGSGGGGSGPPCPPCPAPEFLGGPSVFLFPPKPKDTLMISRTPEVTCVVVDVSQEDPEVQFNWYVDGVEVHNAKTKPREEQFNSTYRVVSVLTVLHQDWLNGKEYKCKVSNKGLPSSIEKTISKAKGQPREPQVCTLPPSQEEMTKNQVSLSCAVKGFYPSDIAVEWESNGQPENNYKTTPPVLDSDGSFFLVSRLTVDKSRWQEGNVFSCSVMHEALHNHYTQKSLSLSLGK
B3: CIgG4E1A1(G4S)3 (Fc fusion)
chain 1: GPPCPPCPAPEFLGGPSVFLFPPKPKDTLMISRTPEVTCVVVDVSQEDPEVQFNWYVDGVEVHNAKTKPREEQFNSTYRVVSVLTVLHQDWLNGKEYKCKVSNKGLPSSIEKTISKAKGQPREPQVYTLPPCQEEMTKNQVSLWCLVKGFYPSDIAVEWESNGQPENNYKTTPPVLDSDGSFFLYSRLTVDKSRWQEGNVFSCSVMHEALHNHYTQKSLSLSLGKGGGGSGGGGSGGGGSDVQLQESGGGLVQAGGSLRLSCLASGRTFTTTSGYNMGWFRQAPGKEREFVAGIKWVSGSNRAYAESVKGRFTISRDNAKNTVYLQMNSLKPEDTAVYYCAAATGQSYVPIREYEYVYWGQGTQVTVS
chain 2: GPPCPPCPAPEFLGGPSVFLFPPKPKDTLMISRTPEVTCVVVDVSQEDPEVQFNWYVDGVEVHNAKTKPREEQFNSTYRVVSVLTVLHQDWLNGKEYKCKVSNKGLPSSIEKTISKAKGQPREPQVCTLPPSQEEMTKNQVSLSCAVKGFYPSDIAVEWESNGQPENNYKTTPPVLDSDGSFFLVSRLTVDKSRWQEGNVFSCSVMHEALHNHYTQKSLSLSLGKGGGGSGGGGSGGGGSEVQLLESGGGLVQPGGSLRLSCAASGFTFGNYDMAWVRQAPGKRPEWVSSIDTGGDITHYADSVKGRFTISRDNAKNTLYLQMNSLRPEDTAVYWCATDEEYALGPNEFDYYGQGTLVTVSS
B4: NIgG4E2A1(RS) (Fc fusion)
chain 1: DVQLQESGGGLVQAGGSLRLSCAASGRTISRYAVGWFRRPPAKEREFIGINWSGGSTTYADSAEGRFIISRDNAKNTVYLQMNSLKPEDTAVYYCAVPSVLVQGGISNPSQYDYWGQGTQVTVSRSGPPCPPCPAPEFLGGPSVFLFPPKPKDTLMISRTPEVTCVVVDVSQEDPEVQFNWYVDGVEVHNAKTKPREEQFNSTYRVVSVLTVLHQDWLNGKEYKCKVSNKGLPSSIEKTISKAKGQPREPQVYTLPPCQEEMTKNQVSLWCLVKGFYPSDIAVEWESNGQPENNYKTTPPVLDSDGSFFLYSRLTVDKSRWQEGNVFSCSVMHEALHNHYTQKSLSLSLGK
chain 2: EVQLLESGGGLVQPGGSLRLSCAASGFTFGNYDMAWVRQAPGKRPEWVSSIDTGGDITHYADSVKGRFTISRDNAKNTLYLQMNSLRPEDTAVYWCATDEEYALGPNEFDYYGQGTLVTVSSRSGPPCPPCPAPEFLGGPSVFLFPPKPKDTLMISRTPEVTCVVVDVSQEDPEVQFNWYVDGVEVHNAKTKPREEQFNSTYRVVSVLTVLHQDWLNGKEYKCKVSNKGLPSSIEKTISKAKGQPREPQVCTLPPSQEEMTKNQVSLSCAVKGFYPSDIAVEWESNGQPENNYKTTPPVLDSDGSFFLVSRLTVDKSRWQEGNVFSCSVMHEALHNHYTQKSLSLSLGK
B5: CIgG4E1A1(G4S)2 (Fc fusion)
chain 1: GPPCPPCPAPEFLGGPSVFLFPPKPKDTLMISRTPEVTCVVVDVSQEDPEVQFNWYVDGVEVHNAKTKPREEQFNSTYRVVSVLTVLHQDWLNGKEYKCKVSNKGLPSSIEKTISKAKGQPREPQVYTLPPCQEEMTKNQVSLWCLVKGFYPSDIAVEWESNGQPENNYKTTPPVLDSDGSFFLYSRLTVDKSRWQEGNVFSCSVMHEALHNHYTQKSLSLSLGKGGGGSGGGGSDVQLQESGGGLVQAGGSLRLSCLASGRTFTTTSGYNMGWFRQAPGKEREFVAGIKWVSGSNRAYAESVKGRFTISRDNAKNTVYLQMNSLKPEDTAVYYCAAATGQSYVPIREYEYVYWGQGTQVTVS
chain 2: GPPCPPCPAPEFLGGPSVFLFPPKPKDTLMISRTPEVTCVVVDVSQEDPEVQFNWYVDGVEVHNAKTKPREEQFNSTYRVVSVLTVLHQDWLNGKEYKCKVSNKGLPSSIEKTISKAKGQPREPQVCTLPPSQEEMTKNQVSLSCAVKGFYPSDIAVEWESNGQPENNYKTTPPVLDSDGSFFLVSRLTVDKSRWQEGNVFSCSVMHEALHNHYTQKSLSLSLGKGGGGSGGGGSEVQLLESGGGLVQPGGSLRLSCAASGFTFGNYDMAWVRQAPGKRPEWVSSIDTGGDITHYADSVKGRFTISRDNAKNTLYLQMNSLRPEDTAVYWCATDEEYALGPNEFDYYGQGTLVTVSS
B6: CIgG4E2A1(RS) (Fc fusion)
chain 1: GPPCPPCPAPEFLGGPSVFLFPPKPKDTLMISRTPEVTCVVVDVSQEDPEVQFNWYVDGVEVHNAKTKPREEQFNSTYRVVSVLTVLHQDWLNGKEYKCKVSNKGLPSSIEKTISKAKGQPREPQVYTLPPCQEEMTKNQVSLWCLVKGFYPSDIAVEWESNGQPENNYKTTPPVLDSDGSFFLYSRLTVDKSRWQEGNVFSCSVMHEALHNHYTQKSLSLSLGKRSDVQLQESGGGLVQAGGSLRLSCAASGRTISRYAVGWFRRPPAKEREFIGINWSGGSTTYADSAEGRFIISRDNAKNTVYLQMNSLKPEDTAVYYCAVPSVLVQGGISNPSQYDYWGQGTQVTVS
chain 2: GPPCPPCPAPEFLGGPSVFLFPPKPKDTLMISRTPEVTCVVVDVSQEDPEVQFNWYVDGVEVHNAKTKPREEQFNSTYRVVSVLTVLHQDWLNGKEYKCKVSNKGLPSSIEKTISKAKGQPREPQVCTLPPSQEEMTKNQVSLSCAVKGFYPSDIAVEWESNGQPENNYKTTPPVLDSDGSFFLVSRLTVDKSRWQEGNVFSCSVMHEALHNHYTQKSLSLSLGKRSEVQLLESGGGLVQPGGSLRLSCAASGFTFGNYDMAWVRQAPGKRPEWVSSIDTGGDITHYADSVKGRFTISRDNAKNTLYLQMNSLRPEDTAVYWCATDEEYALGPNEFDYYGQGTLVTVSS
B7: NIgG4E2A1(G4S)1 (Fc fusion)
chain 1: DVQLQESGGGLVQAGGSLRLSCAASGRTISRYAVGWFRRPPAKEREFIGINWSGGSTTYADSAEGRFIISRDNAKNTVYLQMNSLKPEDTAVYYCAVPSVLVQGGISNPSQYDYWGQGTQVTVSGGGGSGPPCPPCPAPEFLGGPSVFLFPPKPKDTLMISRTPEVTCVVVDVSQEDPEVQFNWYVDGVEVHNAKTKPREEQFNSTYRVVSVLTVLHQDWLNGKEYKCKVSNKGLPSSIEKTISKAKGQPREPQVYTLPPCQEEMTKNQVSLWCLVKGFYPSDIAVEWESNGQPENNYKTTPPVLDSDGSFFLYSRLTVDKSRWQEGNVFSCSVMHEALHNHYTQKSLSLSLGK
chain 2: EVQLLESGGGLVQPGGSLRLSCAASGFTFGNYDMAWVRQAPGKRPEWVSSIDTGGDITHYADSVKGRFTISRDNAKNTLYLQMNSLRPEDTAVYWCATDEEYALGPNEFDYYGQGTLVTVSSGGGGSGPPCPPCPAPEFLGGPSVFLFPPKPKDTLMISRTPEVTCVVVDVSQEDPEVQFNWYVDGVEVHNAKTKPREEQFNSTYRVVSVLTVLHQDWLNGKEYKCKVSNKGLPSSIEKTISKAKGQPREPQVCTLPPSQEEMTKNQVSLSCAVKGFYPSDIAVEWESNGQPENNYKTTPPVLDSDGSFFLVSRLTVDKSRWQEGNVFSCSVMHEALHNHYTQKSLSLSLGK
B8: NIgG4E2A1(G4S)2 (Fc fusion)
chain 1: DVQLQESGGGLVQAGGSLRLSCAASGRTISRYAVGWFRRPPAKEREFIGINWSGGSTTYADSAEGRFIISRDNAKNTVYLQMNSLKPEDTAVYYCAVPSVLVQGGISNPSQYDYWGQGTQVTVSGGGGSGGGGSGPPCPPCPAPEFLGGPSVFLFPPKPKDTLMISRTPEVTCVVVDVSQEDPEVQFNWYVDGVEVHNAKTKPREEQFNSTYRVVSVLTVLHQDWLNGKEYKCKVSNKGLPSSIEKTISKAKGQPREPQVYTLPPCQEEMTKNQVSLWCLVKGFYPSDIAVEWESNGQPENNYKTTPPVLDSDGSFFLYSRLTVDKSRWQEGNVFSCSVMHEALHNHYTQKSLSLSLGK
chain 2: EVQLLESGGGLVQPGGSLRLSCAASGFTFGNYDMAWVRQAPGKRPEWVSSIDTGGDITHYADSVKGRFTISRDNAKNTLYLQMNSLRPEDTAVYWCATDEEYALGPNEFDYYGQGTLVTVSSGGGGSGGGGSGPPCPPCPAPEFLGGPSVFLFPPKPKDTLMISRTPEVTCVVVDVSQEDPEVQFNWYVDGVEVHNAKTKPREEQFNSTYRVVSVLTVLHQDWLNGKEYKCKVSNKGLPSSIEKTISKAKGQPREPQVCTLPPSQEEMTKNQVSLSCAVKGFYPSDIAVEWESNGQPENNYKTTPPVLDSDGSFFLVSRLTVDKSRWQEGNVFSCSVMHEALHNHYTQKSLSLSLGK

The binders below were run against mixture of three Der p 2 specific recombinant human IgE clones H10, H12, P4E (human) (UniProt P01854) (assay: RBL-SX38 IgE displacement, FACS).
mixture of three Der p 2 specific recombinant human IgE clones H10, H12, P4E (human), sequence (P01854 other isoform, or with tags, fused parts or gaps): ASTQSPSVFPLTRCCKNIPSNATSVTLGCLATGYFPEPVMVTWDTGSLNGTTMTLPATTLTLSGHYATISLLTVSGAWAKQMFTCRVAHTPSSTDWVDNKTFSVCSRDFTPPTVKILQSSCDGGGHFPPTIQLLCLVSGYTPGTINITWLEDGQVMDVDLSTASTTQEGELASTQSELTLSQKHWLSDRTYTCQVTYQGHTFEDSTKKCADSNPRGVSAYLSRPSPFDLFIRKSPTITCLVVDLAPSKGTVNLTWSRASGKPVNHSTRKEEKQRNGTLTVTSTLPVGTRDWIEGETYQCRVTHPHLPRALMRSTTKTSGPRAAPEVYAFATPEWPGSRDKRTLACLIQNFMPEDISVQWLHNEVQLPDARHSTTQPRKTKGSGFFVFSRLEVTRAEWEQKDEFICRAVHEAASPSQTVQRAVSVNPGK
With B1 the EC50 was 96.1 nM and the Max effect/effect 1 µM was 95%.
In the case of B2, the EC50 is reported as 2 nM and the Max effect/effect 1 µM is reported as 97%.
B3 showed an EC50 of 24.1 nM and a Max effect/effect 1 µM of 99%.
For B4, the EC50 was 2 nM and the Max effect/effect 1 µM was 97%.
In the case of B5, the EC50 is reported as 35.6 nM and the Max effect/effect 1 µM is reported as 99%.
Binder B6 has a Max effect/effect 1 µM of 6%.
B7 was tested, and the EC50 was 2.3 nM and the Max effect/effect 1 µM was 95%.
Work on B8 yielded an EC50 of 1.9 nM and a Max effect/effect 1 µM of 98%.
